Measured values published in patent publication US20060041106A1.

Biological target: Fas/Apo-1 receptor (human) (UniProt P25445)
Assay: cell-based or functional assay

Chain of UniProt P25445 (P25445 26-335): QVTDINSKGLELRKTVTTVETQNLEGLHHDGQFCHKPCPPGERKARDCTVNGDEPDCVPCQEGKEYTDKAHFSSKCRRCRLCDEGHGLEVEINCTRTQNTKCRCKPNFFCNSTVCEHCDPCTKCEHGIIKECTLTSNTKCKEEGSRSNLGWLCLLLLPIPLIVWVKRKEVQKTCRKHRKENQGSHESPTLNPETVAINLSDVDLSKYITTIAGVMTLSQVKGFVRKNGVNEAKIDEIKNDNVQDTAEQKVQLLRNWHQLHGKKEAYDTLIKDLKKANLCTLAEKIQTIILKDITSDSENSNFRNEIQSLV

anti-Apo-1 monoclonal antibody, CH11
% apoptotic cells, 9D cells, CH11 1 ug/ml, 24 h (control 22.5): 90.8% | % apoptotic cells, Jurkat cells, CH11 1 ug/ml, 24 h (control 5.9): 18.1% | % apoptotic cells, Raji cells, CH11 1 ug/ml, 24 h (control 35.9): 83.7%
